Measured values: patent US5376632A, “Cyclodextrin based erythropoietin formulation” (priority 1992, dated 1994)

Assays:
[1] = Irritation at the site of injection and clinical safety in healthy volunteers (Example 8); assay type: in vivo, human (healthy male volunteers); conditions: s.c.
Experimental: Bioavailability of erythropoietin after subcutaneous administration of erythropoietin in a hydroxypropyl-β-cyclodextrin formulation in comparison with formulations using human serum albumin in healthy volunteers was assessed in the following study.
Six healthy male volunteers with ages ranging between 30 and 40 (median 32) years, body weights between 69 and 80 (median 75) kg were administered subcutaneously in the upper arm 1 ml of an EPO solution (4000 I.U./ml) according to a randomized cross-over design. A four-week interval occured between the two tests. The two formulations of EPO were
Irritation at the site of injection was scored before and 2, 4, and 24 hours after each administration. No oedema, erythema, itching or pain was reported in any of the volunteers at any time during the whole study. Both formulations are therefore equally well tolerated.

[2] = -80° C.; cited from earlier work

EPO: circulating glycoprotein hormone which induces an increase in red cell mass
blood pressure or heart rate [1]: Nor did subcutaneous administration of EPO influence blood pressure or heart rate | haematology and serum biochemistry [1]: No clinically important changes | decrease in activity in aqueous solution [2]: substantial decrease in activity
